Article PMC12263435, “Mechanistic basis for PYROXD1-mediated protection of the human tRNA ligase complex against oxidative inactivation” (Nature Structural & Molecular Biology, 2025)

Legend:
RTCB (with Archease) = target: T1, RTCB (with Archease) (Homo sapiens, UniProt Q9Y3I0); test: guanylylation of RTCB, intact-protein LC-MS; type: biochemical; details: covalent GMP adduct on RTCB His428, 2.5 mM MnCl2, 0.5 mM GTP, 20 mM HEPES pH 8.0, 25 °C
T1 construct: RTCB, N-terminal tag cut by TEV, Sf9; Archease residues 27-168, His6-MBP cut, E. coli; with Protein archease
T1 sequence (Q9Y3I0 1-505): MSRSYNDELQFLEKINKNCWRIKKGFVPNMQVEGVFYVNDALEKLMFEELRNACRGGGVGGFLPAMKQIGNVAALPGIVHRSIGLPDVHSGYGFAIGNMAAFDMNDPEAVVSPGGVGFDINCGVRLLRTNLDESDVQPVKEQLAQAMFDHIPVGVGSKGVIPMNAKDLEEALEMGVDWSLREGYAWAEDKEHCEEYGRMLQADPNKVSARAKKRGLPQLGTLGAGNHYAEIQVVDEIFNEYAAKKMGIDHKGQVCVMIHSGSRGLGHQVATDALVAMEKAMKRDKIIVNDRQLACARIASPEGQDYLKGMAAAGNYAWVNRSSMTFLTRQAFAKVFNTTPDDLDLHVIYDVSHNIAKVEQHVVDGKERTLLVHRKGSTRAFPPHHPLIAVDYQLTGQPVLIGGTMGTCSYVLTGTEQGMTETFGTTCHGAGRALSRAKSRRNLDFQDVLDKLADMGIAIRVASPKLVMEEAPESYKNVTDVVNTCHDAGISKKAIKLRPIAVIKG
T1 sequence (Q8IWT0 27-167 partner): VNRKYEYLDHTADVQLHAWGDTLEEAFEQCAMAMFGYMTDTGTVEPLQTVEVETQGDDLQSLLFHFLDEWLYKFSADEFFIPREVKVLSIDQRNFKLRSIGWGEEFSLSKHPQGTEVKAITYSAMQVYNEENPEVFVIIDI

purified protein = substrate: NC(=O)C1=CN([C@@H]2O[C@H](COP(=O)(O)OP(=O)(O)OC[C@H]3O[C@@H](n4cnc5c(N)ncnc54)[C@H](O)[C@@H]3O)[C@@H](O)[C@H]2O)C=CC1; test: purified protein; type: biochemical, Homo sapiens; details: aerobic (O2 as acceptor), 20 mM Tris-HCl pH 8.0, 150 mM KCl, 0.05% Tween-20, 22 °C
RTCB = target: T2, RTCB (human, UniProt Q9Y3I0 1-505); test: cryo-EM structure; 100 µM RTCB mixed 1:1 with 100 µM PYROXD1 in 20 mM HEPES pH 8.0, 150 mM NaCl, 0.5 mM TCEP, 5 mM MgCl2, 0.5 mM NADH; SEC; single-particle cryo-EM; details: both partners purified
T2 construct: human RTCB (UniProt Q9Y3I0); inserted into the 438B plasmid (N-terminal hexahistidine tag, TEV site); the tag is removed by TEV in either case; also called apo-RTCB; un-guanylylated RTCB; source: Sf9 insect cells (baculovirus), purified (Ni-NTA, TEV cleavage, SEC); not shown: His6, N-terminal, cleaved
T2 sequence: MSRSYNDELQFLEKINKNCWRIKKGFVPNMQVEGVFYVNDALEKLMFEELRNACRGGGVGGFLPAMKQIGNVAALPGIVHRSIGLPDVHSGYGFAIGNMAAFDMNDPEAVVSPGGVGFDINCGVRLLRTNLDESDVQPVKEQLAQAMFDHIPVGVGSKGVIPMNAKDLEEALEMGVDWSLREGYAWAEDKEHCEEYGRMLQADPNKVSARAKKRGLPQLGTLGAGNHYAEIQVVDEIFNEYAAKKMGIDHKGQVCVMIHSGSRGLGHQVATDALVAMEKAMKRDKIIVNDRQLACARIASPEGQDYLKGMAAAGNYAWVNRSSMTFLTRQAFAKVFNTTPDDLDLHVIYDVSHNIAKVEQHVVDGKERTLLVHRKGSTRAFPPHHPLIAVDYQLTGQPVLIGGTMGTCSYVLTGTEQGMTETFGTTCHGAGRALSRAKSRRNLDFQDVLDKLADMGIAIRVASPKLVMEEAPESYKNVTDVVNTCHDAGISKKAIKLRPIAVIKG

StrepII–GFP–RTCB = target: T3, StrepII–GFP–RTCB (human, UniProt Q9Y3I0 1-505); test: pull-down; dissociation kinetics: complex formed with 0.5 mM NADH and 5 mM MgCl2, held on Strep-Tactin beads via StrepII–GFP–RTCB, NADH and unbound PYROXD1 washed out, bound PYROXD1 followed over time under aerobic conditions; Coomassie Blue; details: both partners purified
T3 construct: human RTCB (UniProt Q9Y3I0), catalytic subunit of the tRNA ligase complex; inserted into the 438-Rgfp plasmid; a TEV site lies between GFP and RTCB; In the dissociation assay it is called 2× StrepII–GFP–RTCB; also called immobilized RTCB; 2× StrepII–GFP–RTCB; source: Sf9 insect cells (baculovirus), purified (Strep-Tactin, SEC); not shown: StrepII, N-terminal, kept; super folder green fluorescent …
T3 sequence: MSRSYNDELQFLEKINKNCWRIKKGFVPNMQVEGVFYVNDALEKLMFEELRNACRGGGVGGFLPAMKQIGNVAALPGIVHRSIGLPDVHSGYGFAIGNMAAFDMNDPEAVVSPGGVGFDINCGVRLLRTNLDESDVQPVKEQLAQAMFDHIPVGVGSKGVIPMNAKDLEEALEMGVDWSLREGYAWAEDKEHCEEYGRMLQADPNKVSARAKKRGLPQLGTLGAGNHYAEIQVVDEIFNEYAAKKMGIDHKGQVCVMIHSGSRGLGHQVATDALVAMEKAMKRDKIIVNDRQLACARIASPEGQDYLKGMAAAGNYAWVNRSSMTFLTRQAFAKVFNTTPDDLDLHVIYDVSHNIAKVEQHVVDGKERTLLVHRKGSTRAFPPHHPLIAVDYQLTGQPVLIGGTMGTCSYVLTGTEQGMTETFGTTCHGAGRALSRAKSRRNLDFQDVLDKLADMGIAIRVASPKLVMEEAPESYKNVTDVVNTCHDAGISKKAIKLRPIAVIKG

Q: How did the “guanylylation of RTCB, intact-protein LC-MS” value (RTCB (with Archease)) turn out when `Nc1nc2c(ncn2[C@@H]2O[C@H](COP(=O)(O)OP(=O)(O)OP(=O)(O)O)[C@@H](O)[C@H]2O)c(=O)[nH]1` [GTP] was run?
A: generating a mixture of guanylylated and un-guanylylated RTCB

B1: PYROXD1 (enzyme, human)
chain: MEAARPPPTAGKFVVVGGGIAGVTCAEQLATHFPSEDILLVTASPVIKAVTNFKQISKILEEFDVEEQSSTMLGKRFPNIKVIESGVKQLKSEEHCIVTEDGNQHVYKKLCLCAGAKPKLICEGNPYVLGIRDTDSAQEFQKQLTKAKRIMIIGNGGIALELVYEIEGCEVIWAIKDKAIGNTFFDAGAAEFLTSKLIAEKSEAKIAHKRTRYTTEGRKKEARSKSKADNVGSALGPDWHEGLNLKGTKEFSHKIHLETMCEVKKIYLQDEFRILKKKSFTFPRDHKSVTADTEMWPVYVELTNEKIYGCDFIVSATGVTPNVEPFLHGNSFDLGEDGGLKVDDHMHTSLPDIYAAGDICTTSWQLSPVWQQMRLWTQARQMGWYAAKCMAAASSGDSIDMDFSFELFAHVTKFFNYKVVLLGKYNAQGLGSDHELMLRCTKGREYIKVVMQNGRMMGAVLIGETDLEETFENLILNQMNLSSYGEDLLDPNIDIEDYFD
notes: human PYROXD1 (UniProt Q8WU10), amplified from HeLa cDNA, in pGEX-6P-1; FAD-containing flavoprotein; also called wild-type PYROXD1; WT; source: E. coli BL21(DE3), purified (Glutathione Sepharose, 3C cleavage, SEC); not shown: GST, N-terminal, cleaved
Q: With B1 as the molecule, how does the Km (purified protein) read?
A: 611.0 ± 98.3 µM

Q: And the “stoichiometry N” value (RTCB)?
A: 1

Q: What about the “half-life of the complex upon NADH removal” value (StrepII–GFP–RTCB) of the same molecule?
A: ~2 min
